For one molecule, Kd and IC50 results are on record in patent US20250109209A1.

Assay [1] concerns the target human TL1A (human) (UniProt O95150). Briefly: SPR, representative sensorgram with Human TL1A.
For assay [2] the target is unchanged. The experiment in a line: selectivity ELISA: antibody pre-incubated with TL1A, inhibition of TL1A binding to plate-coated DcR3. A general note: ELISA stands for enzyme-linked immunosorbent assay.
The target of assay [3] is Cyno TL1A (cyno) (UniProt G7PRK8). Briefly: SPR, mAb format, average.
Assay [4] has as its target human TL1A (human) (UniProt O95150). Briefly: SPR, mAb format, average.
Assay [5] addresses mouse TL1A (mouse) (UniProt Q5UBV8). Briefly: SPR, mAb format, average. A general note: In SPR one partner is held on a chip, and binding of the other changes the refractive index at the surface.
Assay [6] deals with human TL1A (human) (UniProt O95150). The experiment in a line: selectivity ELISA: antibody pre-incubated with TL1A, inhibition of TL1A binding to plate-coated DR3.
The target of assay [7] is Cyno TL1A (cyno) (UniProt G7PRK8). The experiment in a line: SPR, representative sensorgram with Cyno TL1A.

Sequence of human TL1A (human) (O95150 72-251 limits assumed): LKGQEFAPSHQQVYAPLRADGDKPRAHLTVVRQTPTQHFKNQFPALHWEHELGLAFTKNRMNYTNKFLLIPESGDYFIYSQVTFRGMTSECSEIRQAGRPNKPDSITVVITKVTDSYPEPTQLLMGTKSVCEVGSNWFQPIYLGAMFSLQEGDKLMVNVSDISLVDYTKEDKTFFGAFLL
Sequence of Cyno TL1A (cyno) (G7PRK8 entry or part of it): as the sequence (O95150 72-251 limits assumed) above, with F39L, I78V counted along it
Sequence of mouse TL1A (mouse) (Q5UBV8 76-252 V180M/M218T limits assumed): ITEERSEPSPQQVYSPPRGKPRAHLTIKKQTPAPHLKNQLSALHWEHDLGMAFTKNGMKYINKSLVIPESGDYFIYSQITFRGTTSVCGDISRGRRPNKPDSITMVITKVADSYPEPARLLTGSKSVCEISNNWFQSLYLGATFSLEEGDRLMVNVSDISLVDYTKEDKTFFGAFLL

B1: Heron2B (antibody, INN chains, looked up, V domains shown)
VH: QVQLVQSGAEVKKPGASVKVSCKASGFDIQDTYMHWVKQRPGQGLEWMGRIDPASGHTKYDPKFQVRVTITRDTSTSTVYLELSSLRSEDTAVYYCARSGGLPDVWGQGTTVTVSS
VL: EIVLTQSPGTLSLSPGERATLSCRASSSVSYMYWYQQKPGQAPRPLIYATSNLASGIPDRFSGSGSGTDFTLTISRLEPEDFAVYYCQQWEGNPRTFGGGTKLEIK
A word on the Kd: it is the constant that tells how readily two partners part at equilibrium. Lower therefore signals tighter binding. By IC50 is commonly meant the point on the concentration scale where inhibition reaches its midpoint. Read a high IC50 as weaker potency. Turning to B1, the Kd stood at 0.339 nM in assay [1]; 0.09 nM in assay [3]; 0.365 nM in assay [4]; 81900 nM in assay [5]; 0.114 nM in assay [7]. For the same molecule, the IC50 in assay [2] turned out to be 3.6 µg/mL; in assay [6], 6.3 µg/mL.
